This assay has as its target high-affinity non-cleavable CD16 (hnCD16) Fc receptor. Put plainly: cell-based or functional assay.

In turn, Rituximab (antibody) displayed a % specific cytotoxicity at E:T=1:1 (ADCC against CD19 negative leukemia cells) (% specific cytotoxicity) of 75.6.

For the origin of these results see US20230390337A1.
